These results are taken from PMC5736413.

pKd: −log10 of the molar value.

Assay [1] addresses FH19–20 19–20 (Homo sapiens) (UniProt P08603). Put plainly: SPR. The settings on record: cited from earlier work.
Assay [2] has as its target recombinant mouse C3d (C1010A) (mouse) (UniProt P01027). The assay is described as follows: SPR.

Sequence of recombinant mouse C3d (C1010A) (mouse) (P01027 1002-1303 C1010A): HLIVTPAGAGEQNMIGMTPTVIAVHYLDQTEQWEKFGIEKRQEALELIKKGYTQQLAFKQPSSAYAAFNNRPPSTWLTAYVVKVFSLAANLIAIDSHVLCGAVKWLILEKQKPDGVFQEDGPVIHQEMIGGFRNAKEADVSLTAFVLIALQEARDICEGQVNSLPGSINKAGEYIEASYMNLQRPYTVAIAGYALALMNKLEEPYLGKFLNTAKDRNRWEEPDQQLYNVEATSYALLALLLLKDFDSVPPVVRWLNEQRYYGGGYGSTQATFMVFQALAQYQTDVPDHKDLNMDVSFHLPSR
Sequence of C3d C3d (P01024 1002-1303): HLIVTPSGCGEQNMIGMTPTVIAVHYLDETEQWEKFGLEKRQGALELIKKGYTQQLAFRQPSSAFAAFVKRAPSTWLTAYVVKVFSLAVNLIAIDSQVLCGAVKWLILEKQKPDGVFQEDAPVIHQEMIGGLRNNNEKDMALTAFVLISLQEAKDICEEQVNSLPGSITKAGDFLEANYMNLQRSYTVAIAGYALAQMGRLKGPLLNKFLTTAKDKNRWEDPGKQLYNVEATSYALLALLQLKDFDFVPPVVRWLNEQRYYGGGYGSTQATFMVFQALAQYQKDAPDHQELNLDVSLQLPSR
Sequence of FH19–20 19–20 (Homo sapiens) (P08603 1104-1231): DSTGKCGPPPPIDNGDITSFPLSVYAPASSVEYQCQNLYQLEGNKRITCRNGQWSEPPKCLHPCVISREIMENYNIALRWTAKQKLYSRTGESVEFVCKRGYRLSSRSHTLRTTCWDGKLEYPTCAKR

C3d C3d (from UniProt P01024): in assay [1], the pKd is 6.74.

Take “recombinant mouse Factor H-related protein A (prototype, class A clone 3A4/5G4) (natural protein)”: the pKd in assay [2] was 6.87.

“recombinant mouse Factor H-related protein B (natural protein)”: in assay [2], the pKd is 6.26.

With “recombinant mouse Factor H-related protein C (natural protein)”, the pKd in assay [2] was 5.98.
